In the nanobody polyreactivity screen of Harvey et al. (2022):

Assay: yeast display, Sf9 membrane polyspecificity reagent, FACS + sequencing; frameworks hold sequencing errors
Procedure, shortened: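 After 36–48 hours of galactose induction, yeast (Saccharomyces cerevisiae BJ5465) displaying a synthetic nanobody library were stained at 4 °C for 1 hour with 10% biotinylated, detergent-solubilized Sf9 membrane reagent. Streptavidin microbeads enriched the stained cells before FACS sorting into low and high (top ~1%) gates on anti-HA and streptavidin fluorescence. Each clone's polyreactivity label reflects its gate of origin.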

Sequence	polyreactivity (PSR sort gate)
QVQLVESGGGLVQAGGSLRLSCAASGSTFGAYAMGWSRQAPGKERELVAAISKRGGSTYYADSVKGRFTISRDNAKNTVYLQMNSLKPEDTAVYYCATDHFSPTYGYWGQGTQVTVSS	low polyreactivity
QVQLVESGGGLVQAGGSLRLSCAASGSTFGAYAMGWYRQAPGKEREFVAAISGGGDGTYADSVKGRFTISRDNAKNTVYLQMNSLKPEDTAVYYCAAEDVPYDREDYWGQGTQVTVSS	low polyreactivity
QVQLVESGGGLVQAGGSLRLSCAASGSTFGDYSMGWYRQAPGKERELVAAISRGGSTYYADSVKGRFTISRDNAKNTVYLQMNSLKPEDTAVYYCNNDVGYSASPDGSTFDYWGQGTQVTVSS	low polyreactivity
QVQLVESGGGLVQAGGSLRLSCAASGSTFGENAMGWYRQAPGKERELVAGINSTGGSTYYADSVKGRFTISRDNAKNTVSLQMNSLKPEDTAVYYCAAGDWYSGNTSHFYYWGQGTQVTVSS	low polyreactivity
QVQLVESGGGLVQAGGSLRLSCAASGSTFGEYAMGWYRQAPGKERELVAAITSSGGSTYYADSVKGRFTISRDNAKNTVYLQMNSLKPEDTAVYYCAADWDYPYDEAVSKDIDYDYWGQGTQVTVSS	low polyreactivity
QVQLVESGGGLVQAGGSLRLSCAASGSTFGEYAMGWYRQAPGKERELVAGITSGGSTNYADSVKGRFTISRDNAKNTVYLQMNSLKPEDTAVYYCNARFYGSVDYWGLGTQVTVSS	low polyreactivity
QVQLVESGGGLVQAGGSLRLSCAASGSTFGFNAMGWYRQAPGKEREFVAAITRSGGSTYYADSVKGRFTISRDNAKNTVYLQMNSLKPEDTAVYYCAKRRYFYSQWVRAFDYWGQGTQVTVSS	high polyreactivity
QVQLVESGGGLVQAGGSLRLSCAASGSTFGFYAMGWYRQAPGKERELVAAISGRGGSTYYADSVKGRFTISRDNAKNTVYLQMNSLKPEDTAVYYCAAKYYGEMYYWGQGTQVTVSS	low polyreactivity
QVQLVESGGGLVQAGGSLRLSCAASGSTFGFYAMGWYRQAPGKERELVAAITSGDITYADSVKGRFTISRDNAKNTVYLQMNSLKPEDTAVYYCAASGPYSYDWGQGTQVTVSS	low polyreactivity
QVQLVESGGGLVQAGGSLRLSCAASGSTFGGNAMGWYRQAPGKERELVAAISSGGTTNYADSVKGRFTISRDNAKNTVDLQMNSLKPEDTAVYYCNKPHRWPQAGYGYWGQGTQVTVSS	high polyreactivity
QVQLVESGGGLVQAGGSLRLSCAASGSTFGGNDMGWYRQAPGKERELVAAISSGTSTNYADSVKGRFTISRDNAKNTVYLQMNSLKPEDTAVYYCNAGFWYRRTYDYWGQGTQVTVSS	low polyreactivity
QVQLVESGGGLVQAGGSLRLSCAASGSTFGGNGMGWYRQAPGKEREFVATITWRSGSTYYADSVKGRFTISRDKAKNTVYLKMNILKPEDSAVYYCAKYTSSRRNTWYYYWGQGTEVTVSS	high polyreactivity
QVQLVESGGGLVQAGGSLRLSCAASGSTFGGSAMGWYRQAPGKERELVAAISKSGGSTYYADSVKGRFTISRDNAKNTVYLQMNSLKPEDTAVYYCNAPYKRSPYNYWGQGTQVTVSS	high polyreactivity
QVQLVESGGGLVQAGGSLRLSCAASGSTFGGYAMGWYIQAPGKERELVADISRRVGSTYYADSVKGRFTISRDNAKNTVYLQMNSLKPEDTAVYYCNVPRIVIISGPSSPFRYYWGQGTQVTVSS	high polyreactivity
QVQLVESGGGLVQAGGSLRLSCAASGSTFGGYAMGWYRQAPAKERELVAAISTSGGNTYYADSVKGRFTISRDNAKNTVYLQMNRLKPEDTAVYYCARDRVSWGGQDSWGQGTQVSVSS	high polyreactivity
QVQLVESGGGLVQAGGSLRLSCAASGSTFGGYAMGWYRQAPGKERELVAAISGSGVRTYYADSEKGRFTISRDNAKNTVYLQMNSLQPEDTAVYYCAKRVRYPGDRYYYWGQGTQVTVSS	high polyreactivity
QVQLVESGGGLVQAGGSLRLSCAASGSTFGGYAMGWYRQAPGKERELVAGITISVGSTYYADSVKGRFTISRDNAKNTVYLQMNSLKPEDTAVYYCAADGLSWYNYWGQGTQVTVSS	high polyreactivity
QVQLVESGGGLVQAGGSLRLSCAASGSTFGGYVMGWYRQAPGKERELVATITQGDGSTYYADSVKGRFTISRDNAKNTVYLQMNSLKPEDTAVYYCAAYGWYDLYYWEYDYWGQGTQVTVSS	high polyreactivity
QVQLVESGGGLVQAGGSLRLSCAASGSTFGHYAMGWYRQAPGKERELVAAISWSGGSTSYADSVKGRFTISRDNAKNTVYLQMNSLKPEDTAVYYCNKRQEWFHFPYTRVYYWGQGTQLTVSS	low polyreactivity
QVQLVESGGGLVQAGGSLRLSCAASGSTFGHYAMGWYRQAPGKERELVAAITWSGGSTYYADSVKGRFTISRDNAKNTVYLQMNSLKPEDTAVYYCNAVTRRSAQVGHDYWGQGTQVTVSS	high polyreactivity
QVQLVESGGGLVQAGGSLRLSCAASGSTFGHYAMGWYRQAPGKERELVAGITDTDNHELRRLCEGRFTISRDNAKNTVYLQMTSLKPEDTAVYYCNADDTYYPLGGITGYDYWGQGTQVTVSS	low polyreactivity
QVQLVESGGGLVQAGGSLRLSCAASGSTFGHYAMGWYRQAPGKERELVAGITYTDNHELRRLCEGRFTISRDNAKNTVYLQMNSLKPEDTAVYYCNADDTYYPLGGITGYDYWGQGTQVTVSS	low polyreactivity

Sequence	polyreactivity (PSR sort gate)
QVQLVESGGGLVQAGGSLRLSCAASGSTFGIYAMGWYRPAPGKERELVAAISSGGSTNYADSVKGRFTISRDNAKNTVYLQMNCLKPEDSAVYYCAVESVYEYGGYVDSAYDYWGQGTQVTVSS	low polyreactivity
QVQLVESGGGLVQAGGSLRLSCAASGSTFGIYVMGWYRQAPGKERELVATISSSGGRTYYADSVKGRFTISRDNAKNTVYLQMNSLKPEDTAVYYCAADGYIDISPGYYYTYDYWGQGTQVTVSS	low polyreactivity
QVQLVESGGGLVQAGGSLRLSCAASGSTFGKNAMGWYRQAPGKERELVAAITRRGGSTNYADSVKGRFTISRDNAKNTVYLQINSLKPEDTAVYYCAASWGRTSSKPFDYWGQGTQVTVSS	high polyreactivity
QVQLVESGGGLVQAGGSLRLSCAASGSTFGLNALGWYRQAPGKERELVAAISTSGGSTYYADSVKGRFTISRDNAKNTVFLQMNSLNPEDTAVYYCAADVVAGYDYSQYYYWGQGTQVTVSS	low polyreactivity
QVQLVESGGGLVQAGGSLRLSCAASGSTFGLNAMGWYRQAPGKERELVAAISTSGGSTYYADSVKGRFTISRDNAKNTVYLQMNSLKPEDTAVYYCAAEVVAGYDYSQYYYWGQGTQVTVSS	low polyreactivity
QVQLVESGGGLVQAGGSLRLSCAASGSTFGLYAMGWYRQAPGKERELVADITWSGGSTYYADSVKGRFTISRDNAKNTVYLQMNSLKPEDTAVYYCAARYPWVYYDFDYWGQGTQVTVSS	low polyreactivity
QVQLVESGGGLVQAGGSLRLSCAASGSTFGNAMGWYTQAPGKEREWVAAISSRGDRTYYADSVKGRFTISRDNAKNTGYLQMNSLKPEDTAVYYCAKDGYPNKYDYWGQGTQVTVSS	high polyreactivity
QVQLVESGGGLVQAGGSLRLSCAASGSTFGNNAMGLYRQAPGKERELVASINWNGGSTYYADSVKGRFTISRDNAKITVYLQMNSLKPEDTAVYYCNARLYFVEGQDYYYWGQGTQVTVSS	low polyreactivity
QVQLVESGGGLVQAGGSLRLSCAASGSTFGNNAMGWYRQAPGKERELVASISWSSGRTYYADSVKGRFTISRDNAKNTVYLQMNSLKREDTAVYYCAAPLPVDVVWDRSAEVRYDYWGQGTQVTVSS	low polyreactivity
QVQLVESGGGLVQAGGSLRLSCAASGSTFGPNTMGWYRQAPGKERELVAAITTRGGRTYYADSVKGRFTISRDNAKNTVYLQMNSLKPEDTAVYYCAASAPYYGRGGLVGYWGQGTQVTVSS	high polyreactivity
QVQLVESGGGLVQAGGSLRLSCAASGSTFGPYAMGWYRQAPGKERELVATINSSGSTNYADSVKGRFTISRDNAKNTVYLQMNSLKPEDTAVYYCATLHYYYWYDYWGQGTQVTVSS	low polyreactivity
QVQLVESGGGLVQAGGSLRLSCAASGSTFGQYAMGWYRQAPGKERELVAAISRNGGRTYYADSVKGRFTISRDNAKNTVYLLMNSLKPEDTAVYYCAAGGFLYVYYRGMYYWGQGTQVTVSS	high polyreactivity
QVQLVESGGGLVQAGGSLRLSCAASGSTFGRNAMGWYRQAPGKERELVAAINWSDGSTHYADSVKGRFTISRDNAKNTVYLQMNSLKPEDTAVYYCAADAWSWPVDYNYWGQGTQVTVSS	low polyreactivity
QVQLVESGGGLVQAGGSLRLSCAASGSTFGRNAMGWYRQAPGKERELVASISRRGGSTYYADSVKGRFTISRDNAKNTVYLQMNSLKPEDTAVYYCNARYYFSDYGYWGQGTQVTVSS	high polyreactivity
QVQLVESGGGLVQAGGSLRLSCAASGSTFGRNAMGWYRQAPGKERELVASISWGGGSTYYADSVKVRFTISRDNAKNNVYLQMNSLKPEDTAVYYCAAGLAYWYWRGYDYWGQGTQVTVSS	high polyreactivity
QVQLVESGGGLVQAGGSLRLSCAASGSTFGRYAMGWYRQAPGKERELVAAISASGGSTYYADSVKGRFTISRDNAKNTVYLLMNSLKPEDTAVYYSAALIDVITGQYDYWGQGTQVTVSS	high polyreactivity
QVQLVESGGGLVQAGGSLRLSCAASGSTFGRYAMGWYRQAPGKERELVAAISPRGGSTYYADSVKGRFTISRDNAKNTVYLQMNSLKPEDTAVYYCATGYPIDLGREFDYWGQGIQVTVSS	high polyreactivity
QVQLVESGGGLVQAGGSLRLSCAASGSTFGRYAMGWYRQAPGKERELVAAISWSGGSTHYADSVKGRFTISRDNAKNTVYLQMNSLKPEDTAVYYCAAYTFYSYDYWGQGSQVTVSS	high polyreactivity
QVQLVESGGGLVQAGGSLRLSCAASGSTFGRYAMGWYRQAPGKERELVAAITSDTGNTNYADSVKGRFTISRDNAKNTVYLQMNSLKPEDTAVYYCAAATFWVLWGHVIGNYDSWGQGTQVTVSS	low polyreactivity
QVQLVESGGGLVQAGGSLRLSCAASGSTFGRYAMGWYRQAPGKERELVAGISRGGTTYYADSVKGRFTISRDNAKNTVYLQLNSLKPEDTAVYYCAKLRWPVFDYWGQGTQVTVSS	high polyreactivity
QVQLVESGGGLVQAGGSLRLSCAASGSTFGRYAMGWYRQAPGKERELVARISWGGGSTYYADSVKGRFTISRDNAKNTVYLQMNSLKPEDTAVYYCATRVYRSAVSYDYWGQGTQVTVSS	high polyreactivity
